Residue numbers refer to the chain shown, from its start. Blank lines part the entries; values can stand above or below the binder they belong to.
Columns and labels:
[1] = molecular target: T1, human PCSK9 with a C-terminal myc-myc-hexahistidine tag (human, UniProt Q8NBP7 31-692, limits assumed); assay: SPR 25C pH 7.2, mAb captured;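 also: biacore SPR, antibodies captured on anti-human Fc CM4 chip with PCSK9 flowed as analyte, rate constants from a one-to-one kinetic fit, KD and half-life derived from them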
T1 construct: also called hPCSK9-mmH; hPCSK9-mmh; not shown: C-terminal myc-myc-hexahistidine tag

[2] = molecular target: T1, human PCSK9 with a C-terminal …; assay: SPR 25C, mAb captured;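 also: biacore CM4 surface bearing anti-human Fc antibody capturing the mAbs, PCSK9 binding and release rates fitted with a one-to-one model, KD and half-life derived from those rates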
[3] = molecular target: T1, human PCSK9 with a C-terminal …; assay: SPR 25C pH 5.75, mAb captured;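 also: biacore surface with anti-human Fc antibody capturing the antibodies, PCSK9 as analyte, one-to-one kinetic fit, KD as kd over ka, half-life derived from kd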
Method: A Biacore CM4 sensor chip was derivatized with a monoclonal mouse anti-human Fc antibody to capture human antibodies. The histidine substitution variant anti-PCSK9 antibodies were captured onto the anti-human Fc sensor surface from culture medium after transient expression in Chinese hamster ovary (CHO) cells. […] Kinetic association (kₐ) and dissociation (kd) rate constants were determined by processing and fitting the data to a 1:1 binding model using Scrubber 2.0 curve fitting software. Binding dissociation equilibrium constants (KD) and dissociative half-lives (t_{1/2}) were calculated from the kinetic rate constants as: KD (M)=kd/kₐ; and t_{1/2} (min)=(In2/(60*kd).

B2: VH-S56H (antibody, V domains shown)
VH: EMQLVESGGGLVQPGGSLRLSCAASGFTFSSHWMKWVRQAPGKGLEWVANINQDGHEKYYVDSVKGRFTISRDNAKNSLFLQMNSLRAEDTAVYYCARDIVLMVYDMDYYYYGMDVWGQGTTVTVSS
VL: not shown
notes: His variant of 300N
KD ratio pH 5.75/pH 7.2 [2]: 1.11
t½ ratio pH 5.75/pH 7.2 [2]: 0.23
Kd [1]: 1.02 nM
t½ [1]: 40 min
Kd [3]: 1.13 nM
t½ [3]: 9 min

B5: VH-R98H (antibody, V domains shown)
VH: B2 VH with H56S, R98H
VL: not shown
notes: His variant of 300N
KD ratio pH 5.75/pH 7.2 [2]: 1.75
t½ ratio pH 5.75/pH 7.2 [2]: 0.28
Kd [1]: 4.29 nM
t½ [1]: 23 min
Kd [3]: 7.52 nM
t½ [3]: 6 min

B7: VH-S30H (antibody, V domains shown)
VH: B2 VH with S30H, H56S
VL: not shown
notes: His variant of 300N
KD ratio pH 5.75/pH 7.2 [2]: 1.03
t½ ratio pH 5.75/pH 7.2 [2]: 0.33
Kd [1]: 1.06 nM
t½ [1]: 41 min
Kd [3]: 1.09 nM
t½ [3]: 13 min

B8: VK-G34H (antibody, V domains shown)
VH: B2 VH with H56S
VL: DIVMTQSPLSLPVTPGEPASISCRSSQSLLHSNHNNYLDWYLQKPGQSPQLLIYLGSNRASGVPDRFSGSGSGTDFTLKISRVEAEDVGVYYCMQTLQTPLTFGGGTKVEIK
notes: His variant of 300N
KD ratio pH 5.75/pH 7.2 [2]: 131
t½ ratio pH 5.75/pH 7.2 [2]: 0.38
Kd [1]: 18 nM
t½ [1]: 1 min
Kd [3]: 2370 nM
t½ [3]: 0.3 min

B10: VH-N52H (antibody, V domains shown)
VH: B2 VH with N52H, H56S
VL: not shown
notes: His variant of 300N
KD ratio pH 5.75/pH 7.2 [2]: 1.84
t½ ratio pH 5.75/pH 7.2 [2]: 0.16
Kd [1]: 2.35 nM
t½ [1]: 21 min
Kd [3]: 4.33 nM
t½ [3]: 3 min

B14: VH-T28H (antibody, V domains shown)
VH: B2 VH with T28H, H56S
VL: not shown
notes: His variant of 300N
KD ratio pH 5.75/pH 7.2 [2]: 0.49
t½ ratio pH 5.75/pH 7.2 [2]: 0.8
Kd [1]: 2.96 nM
t½ [1]: 20 min
Kd [3]: 1.45 nM
t½ [3]: 16 min

B15: VH-D54H (antibody, V domains shown)
VH: B2 VH with D54H, H56S
VL: not shown
notes: His variant of 300N
KD ratio pH 5.75/pH 7.2 [2]: 0.79
t½ ratio pH 5.75/pH 7.2 [2]: 0.33
Kd [1]: 0.964 nM
t½ [1]: 40 min
Kd [3]: 0.76 nM
t½ [3]: 13 min

B16: VH-Y110H (antibody, V domains shown)
VH: B2 VH with H56S, Y110H
VL: not shown
notes: His variant of 300N
KD ratio pH 5.75/pH 7.2 [2]: 0.02
t½ ratio pH 5.75/pH 7.2 [2]: 9.97
Kd [1]: 194 nM
t½ [1]: 1 min
Kd [3]: 3.37 nM
t½ [3]: 7 min

B20: VH-Y111H (antibody, V domains shown)
VH: B2 VH with H56S, Y111H
VL: not shown
notes: His variant of 300N
KD ratio pH 5.75/pH 7.2 [2]: 0.36
t½ ratio pH 5.75/pH 7.2 [2]: 2.29
Kd [1]: 19.4 nM
t½ [1]: 3 min
Kd [3]: 7.01 nM
t½ [3]: 6 min

B23: VK-L29H (antibody, V domains shown)
VH: B2 VH with H56S
VL: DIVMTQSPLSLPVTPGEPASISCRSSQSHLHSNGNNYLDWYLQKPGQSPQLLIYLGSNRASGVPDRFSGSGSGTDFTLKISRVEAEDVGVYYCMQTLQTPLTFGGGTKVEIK
notes: His variant of 300N
KD ratio pH 5.75/pH 7.2 [2]: 3.12
t½ ratio pH 5.75/pH 7.2 [2]: 0.16
Kd [1]: 12.9 nM
t½ [1]: 7 min
Kd [3]: 40.2 nM
t½ [3]: 1 min

B27: VH-F27H (antibody, V domains shown)
VH: B2 VH with F27H, H56S
VL: not shown
notes: His variant of 300N
KD ratio pH 5.75/pH 7.2 [2]: 0.87
t½ ratio pH 5.75/pH 7.2 [2]: 0.29
Kd [1]: 1.21 nM
t½ [1]: 42 min
Kd [3]: 1.05 nM
t½ [3]: 12 min

B29: VH-G26H (antibody, V domains shown)
VH: B2 VH with G26H, H56S
VL: not shown
notes: His variant of 300N
KD ratio pH 5.75/pH 7.2 [2]: 0.97
t½ ratio pH 5.75/pH 7.2 [2]: 0.26
Kd [1]: 0.985 nM
t½ [1]: 47 min
Kd [3]: 0.956 nM
t½ [3]: 12 min

B31: VH-Q53H (antibody, V domains shown)
VH: B2 VH with Q53H, H56S
VL: not shown
notes: His variant of 300N
KD ratio pH 5.75/pH 7.2 [2]: 1.29
t½ ratio pH 5.75/pH 7.2 [2]: 0.19
Kd [1]: 1.22 nM
t½ [1]: 32 min
Kd [3]: 1.57 nM
t½ [3]: 6 min

B32: VH-S31H (antibody, V domains shown)
VH: B2 VH with S31H, H56S
VL: not shown
notes: His variant of 300N
KD ratio pH 5.75/pH 7.2 [2]: 1
t½ ratio pH 5.75/pH 7.2 [2]: 0.34
Kd [1]: 1.01 nM
t½ [1]: 48 min
Kd [3]: 1 nM
t½ [3]: 16 min

B33: VH-M103H (antibody, V domains shown)
VH: B2 VH with H56S, M103H
VL: not shown
notes: His variant of 300N
KD ratio pH 5.75/pH 7.2 [2]: 1.68
t½ ratio pH 5.75/pH 7.2 [2]: 0.21
Kd [1]: 3.3 nM
t½ [1]: 27 min
Kd [3]: 5.56 nM
t½ [3]: 6 min

B34: VH-W33H (antibody, V domains shown)
VH: B2 VH with W33H, H56S
VL: not shown
notes: His variant of 300N
KD ratio pH 5.75/pH 7.2 [2]: 1.39
t½ ratio pH 5.75/pH 7.2 [2]: 0.03
Kd [1]: 15.4 nM
t½ [1]: 4 min
Kd [3]: 21.5 nM
t½ [3]: 0.1 min

The remaining lines, values ahead:

binding result [1]: no binding
B1: VH-A97 (antibody, V domains shown)
VH: B2 VH with H56S, A97H
VL: not shown
notes: His variant of 300N; label printed without the final H

KD ratio pH 5.75/pH 7.2 [2]: 2.95
t½ ratio pH 5.75/pH 7.2 [2]: 0.29
Kd [1]: 0.906 nM
t½ [1]: 66 min
Kd [3]: 2.68 nM
t½ [3]: 19 min
B3: VK-L55H (antibody, V domains shown)
VH: B2 VH with H56S
VL: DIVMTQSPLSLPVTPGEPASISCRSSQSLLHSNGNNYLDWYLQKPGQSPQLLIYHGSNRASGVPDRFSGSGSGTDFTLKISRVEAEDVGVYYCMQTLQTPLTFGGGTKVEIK
notes: His variant of 300N

KD ratio pH 5.75/pH 7.2 [2]: 0.92
t½ ratio pH 5.75/pH 7.2 [2]: 0.26
Kd [1]: 1.39 nM
t½ [1]: 32 min
Kd [3]: 1.28 nM
t½ [3]: 8 min
B4: VH-K58H (antibody, V domains shown)
VH: B2 VH with H56S, K58H
VL: not shown
notes: His variant of 300N

KD ratio pH 5.75/pH 7.2 [2]: 1.24
t½ ratio pH 5.75/pH 7.2 [2]: 0.34
Kd [1]: 0.828 nM
t½ [1]: 50 min
Kd [3]: 1.03 nM
t½ [3]: 17 min
B6: VH-I51H (antibody, V domains shown)
VH: B2 VH with I51H, H56S
VL: not shown
notes: His variant of 300N

binding result [1]: no binding
B9: VK-S32H (antibody, V domains shown)
VH: B2 VH with H56S
VL: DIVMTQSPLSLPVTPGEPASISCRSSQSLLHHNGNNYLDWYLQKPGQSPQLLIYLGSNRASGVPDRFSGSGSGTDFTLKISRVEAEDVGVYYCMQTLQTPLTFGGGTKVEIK
notes: His variant of 300N

KD ratio pH 5.75/pH 7.2 [2]: 4.62
t½ ratio pH 5.75/pH 7.2 [2]: 0.49
Kd [1]: 3.91 nM
t½ [1]: 26 min
Kd [3]: 18.1 nM
t½ [3]: 13 min
B11: VH-D115H (antibody, V domains shown)
VH: B2 VH with H56S, D115H
VL: not shown
notes: His variant of 300N

KD ratio pH 5.75/pH 7.2 [2]: 3.56
t½ ratio pH 5.75/pH 7.2 [2]: 0.15
Kd [1]: 6.77 nM
t½ [1]: 18 min
Kd [3]: 24.1 nM
t½ [3]: 3 min
B12: VH-I100H (antibody, V domains shown)
VH: B2 VH with H56S, I100H
VL: not shown
notes: His variant of 300N

KD ratio pH 5.75/pH 7.2 [2]: 2.2
t½ ratio pH 5.75/pH 7.2 [2]: 0.83
Kd [1]: 292 nM
t½ [1]: 1 min
Kd [3]: 643 nM
t½ [3]: 0 min
B13: VH-Y105H (antibody, V domains shown)
VH: B2 VH with H56S, Y105H
VL: not shown
notes: His variant of 300N

KD ratio pH 5.75/pH 7.2 [2]: 1.8
t½ ratio pH 5.75/pH 7.2 [2]: 0.22
Kd [1]: 1.06 nM
t½ [1]: 46 min
Kd [3]: 1.91 nM
t½ [3]: 10 min
B17: VH-F29H (antibody, V domains shown)
VH: B2 VH with F29H, H56S
VL: not shown
notes: His variant of 300N

KD ratio pH 5.75/pH 7.2 [2]: 0.14
t½ ratio pH 5.75/pH 7.2 [2]: 0.73
Kd [1]: 46.2 nM
t½ [1]: 9 min
Kd [3]: 6.32 nM
t½ [3]: 7 min
B18: VH-D99H (antibody, V domains shown)
VH: B2 VH with H56S, D99H
VL: not shown
notes: His variant of 300N

KD ratio pH 5.75/pH 7.2 [2]: 1.02
t½ ratio pH 5.75/pH 7.2 [2]: 1.37
Kd [1]: 242 nM
t½ [1]: 0 min
Kd [3]: 247 nM
t½ [3]: 1 min
B19: VH-Y109H (antibody, V domains shown)
VH: B2 VH with H56S, Y109H
VL: not shown
notes: His variant of 300N

KD ratio pH 5.75/pH 7.2 [2]: 1.65
t½ ratio pH 5.75/pH 7.2 [2]: 0.24
Kd [1]: 1.11 nM
t½ [1]: 36 min
Kd [3]: 1.83 nM
t½ [3]: 9 min
B21: VK-G56H (antibody, V domains shown)
VH: B2 VH with H56S
VL: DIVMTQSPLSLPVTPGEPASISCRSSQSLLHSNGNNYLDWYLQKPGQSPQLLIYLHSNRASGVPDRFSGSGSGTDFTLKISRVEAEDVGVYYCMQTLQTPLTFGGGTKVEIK
notes: His variant of 300N

binding result [1]: no binding
B22: VK-T96H (antibody, V domains shown)
VH: B2 VH with H56S
VL: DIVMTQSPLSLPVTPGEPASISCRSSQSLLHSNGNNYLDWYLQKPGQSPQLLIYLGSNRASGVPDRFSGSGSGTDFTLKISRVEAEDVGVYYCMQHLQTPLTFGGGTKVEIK
notes: His variant of 300N

KD ratio pH 5.75/pH 7.2 [2]: 1.13
t½ ratio pH 5.75/pH 7.2 [2]: 0.28
Kd [1]: 0.921 nM
t½ [1]: 53 min
Kd [3]: 1.04 nM
t½ [3]: 15 min
B24: VH-G55H (antibody, V domains shown)
VH: B2 VH with G55H, H56S
VL: not shown
notes: His variant of 300N

KD ratio pH 5.75/pH 7.2 [2]: 1.03
t½ ratio pH 5.75/pH 7.2 [2]: 0.26
Kd [1]: 1.2 nM
t½ [1]: 30 min
Kd [3]: 1.23 nM
t½ [3]: 8 min
B25: VH-E57H (antibody, V domains shown)
VH: B2 VH with H56S, E57H
VL: not shown
notes: His variant of 300N

KD ratio pH 5.75/pH 7.2 [2]: 3.66
t½ ratio pH 5.75/pH 7.2 [2]: 0.31
Kd [1]: 4.89 nM
t½ [1]: 23 min
Kd [3]: 17.9 nM
t½ [3]: 7 min
B26: VH-L102H (antibody, V domains shown)
VH: B2 VH with H56S, L102H
VL: not shown
notes: His variant of 300N

KD ratio pH 5.75/pH 7.2 [2]: 2.33
t½ ratio pH 5.75/pH 7.2 [2]: 0.26
Kd [1]: 2.62 nM
t½ [1]: 43 min
Kd [3]: 6.11 nM
t½ [3]: 11 min
B28: VH-V116H (antibody, V domains shown)
VH: B2 VH with H56S, V116H
VL: not shown
notes: His variant of 300N

binding result [1]: no binding
B30: VH-G113H (antibody, V domains shown)
VH: B2 VH with H56S, G113H
VL: not shown
notes: His variant of 300N

From patent US20140044730A1 (Regeneron, published 2014)
